Test results published in the supplement of paper PMC9170038.

System: MS2 coat protein
Experiment: apparent KD of MS2 coat protein; higher = weaker reporter binding
Conditions: Eterna round: R107
How it was run: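 Illumina sequencing clusters were used for on-chip transcription of designed RNA switches. Titration with SNAP-549-labelled MS2 coat protein followed, in twofold steps from 0.7 or 1.5 nM to 3 µM in 100 mM Tris-HCl pH 7.5, 80 mM KCl, 4 mM MgCl2, without or with constant ligand. Apparent KD is each design's median of fits to normalised cluster binding curves.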

[1] = input ligand: theophylline 20 uM
[2] = input ligand: theophylline 2 mM
[3] = input ligand: tryptophan 2.4 mM

Sequence | apparent KD of MS2 coat protein (input ligand: arginine 13.2 mM) | apparent KD of MS2 coat protein [1] | apparent KD of MS2 coat protein [2] | apparent KD of MS2 coat protein (input ligand: none) | apparent KD of MS2 coat protein [3]
ACAUGAGGAUCACCCAUGUAACGGCAUAAUCGAGGACCGGUACGGCCGCCACUCGGAAUCAGUGACAGGCAUAUUUAUUAUAAGA [Eclusion - Tryptophan A / A] | 0.012 µM | 0.0156 µM | 0.0115 µM | – | –
GGACUAACCUGAAGGAGCGACACGCAGAAACUGCAAAUUCCUCCACACGAGGAUCACCCGUGUCAGGUAGGUCGCAGGUUAGUCG [ArgBX 28] | 0.019 µM | 0.0257 µM | 0.0216 µM | 0.0202 µM | 0.0192 µM
AAACAUUGCUCAGAUACCAGACAUGAGGAUCACCCAUGUACCAAGGUAAAGAAAUAACGUGUCCCUUGGCAGCUGAGCAAUGAAA [MAT - Exclusion Theophlline B - Mod of Eli - D10] | 0.0115 µM | 0.0128 µM | – | – | 0.0109 µM
AACAUGAGGAUCACCCAUGUCGGGCCGGAGCGAGGACCGGUACGGCCGCCACUCGAGACAUGAGGAUCACCCAUGUAGGGCGAAA [Exclusion Tryptophan A GF21] | 0.0615 µM | 0.141 µM | 0.189 µM | 0.116 µM | 0.186 µM
AGCUUGUAGUCGGCCGCCACUAAUAGGGAUCCUAUCGAGGCGGGUAACAUGAGGAUCACCCAUGUUAGGACCGGGACAGCGAGGA [Cetian] | 0.01 µM | 0.0154 µM | 0.0116 µM | 0.0166 µM | 0.0108 µM
ACUGGAGGUGGAAGGAGCGGGAGACAUGAGCAUCACAUGAGGAUCACCCAUGUAGGAUCAUCCCAGGUAGGUCGCCAUGUCGAAA [rtfemullin] | 0.12 µM | 0.292 µM | 0.431 µM | 0.276 µM | 0.189 µM
UGUACUAUGUGAAGGAGCGCCACAUGAGGAUCACCCAUGUAAACAUGAGGAUCACCCAUGUGGCAGGUAGGUCGCACAUAGUACU [ArgBS - Double MS2 - I don't expect this to work] | 0.0497 µM | 0.203 µM | 0.227 µM | 0.108 µM | 0.0787 µM
GCGUACGAUCGGGAUACCAGACAUUGCCGUUAGGGUGAACUUGAGGAUCACCCAAGUUUUGUCCCUUGGCAGCCCGAUCGUACGC [ETB NP+V+V2 #9 Diff Apt, Same Structure] | 0.00992 µM | 0.0194 µM | 0.22 µM | 0.01 µM | 0.0104 µM
UUCAGUACAACAGAUACCAGACAGUACUCUAAAUUGCAACAUGAGGAUCACCCAUGUAUAGUCCCUUGGCAGCUGUAAUGGGUGA [Theo B SS s2] | 0.15 µM | 0.159 µM | – | – | 0.0708 µM
AAUAAUAUCCUCAUGUGAGUCGUACCGUAACGAGGACCGGUACGGCCGCCACUCGAACAUGAGGAUCACCCAUGUAGGUACGACA [M'-T'-T-MS2-T'' - Design 8] | 0.0421 µM | 0.182 µM | 0.238 µM | – | –
AGCGAUUUCGGAAGGAGCGGUACAUGAGGAUCACCCAUGUAUUCAAUCGUGAUCGGCGCGUGCCAGGUAGGUCGCCGAAGGCGUC [Veatat] | 0.0124 µM | 0.0149 µM | 0.0109 µM | 0.00995 µM | 0.0119 µM
AAAACAUGAGGAUCACCCAUGUGGUGAGAAGGAGCGUCGGAAAUGACAGGUAGGUCGCUUAUCCGUAAGUAUUAGUGUUAGUACA [SSArg A #1] | 0.14 µM | 0.29 µM | 0.388 µM | 0.28 µM | 0.335 µM
UUCUACAUGAGGAUCACCCAUGUAAACGAUACCAGACGAGUAUUAGUCCCUUGGCAGCGUAGAGUGUCGUUUAUAGUAGGAUACC [TheoA-ms2@5] | 0.0234 µM | 0.0261 µM | – | – | 0.021 µM
GCAUCCUAGUCGGCCGCCACUGCAUCACCAGUGGCAGGUGAUCAACAUGAGGAUCACCCAUGUAGCAGGACCGGGACUAGGAUGC [(Trp1)-(TM)''-(TM)'-(Ms2)-(Trp2)_Design4] | 0.113 µM | 0.163 µM | 0.168 µM | – | –
CGCCGAGAGGGAAGGAGCGCGAUAACAUAACAUGAGGAUCACCCAUGUAAGAAAUUAAUCAUGCAGGUAGGUCGCCCAAGCGGCG [Same State Arginine B GF 3] | 0.015 µM | 0.0238 µM | 0.0194 µM | 0.0151 µM | 0.0149 µM
AGCGCAUCCGUAUAGGAUGCGCUCCAUGAAGGAGCGCGGGAAACCGCAGGUAGGUCGCGUGACAUGAGGAUCACCCAUGUGUAUU [#17 Same State - Arginine A] | 0.0169 µM | 0.0277 µM | 0.0228 µM | 0.02 µM | 0.0209 µM
